Patent US20030148956A1 (PROCTER AND GAMBLE, published 2003)
Ends that are not written are not given here.

T1: corticotropin releasing factor 2 receptor
T1 sequence (Q13324 whole entry, species assumed, looked up): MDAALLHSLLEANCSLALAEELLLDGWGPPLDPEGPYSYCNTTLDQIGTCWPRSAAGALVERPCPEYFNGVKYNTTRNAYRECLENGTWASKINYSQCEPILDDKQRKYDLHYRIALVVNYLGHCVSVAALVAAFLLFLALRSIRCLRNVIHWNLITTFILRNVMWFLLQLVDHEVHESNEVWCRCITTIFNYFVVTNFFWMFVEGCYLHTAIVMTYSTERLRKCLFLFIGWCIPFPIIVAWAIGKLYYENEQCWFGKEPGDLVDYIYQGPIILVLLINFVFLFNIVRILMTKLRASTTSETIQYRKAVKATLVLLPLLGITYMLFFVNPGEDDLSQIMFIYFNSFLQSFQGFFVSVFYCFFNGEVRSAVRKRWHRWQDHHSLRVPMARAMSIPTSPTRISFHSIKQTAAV


Columns and labels:
[1] = biological target: corticotropin releasing factor 1 receptor; test: cell-based or functional assay
[2] = biological target: T1, corticotropin releasing factor 2 …; test: cell-based or functional assay

| CRF1R EC50 [1] | CRF1R Emax % [1] | CRF2R EC50 [2] | CRF2R Emax % [2] | Binder |
| --- | --- | --- | --- | --- |
| 1 µM | 86.8% | 0.006 µM | 93.7% | DNPSLSIDLPLILLRTLLELARTQSQRERAEQNARIFARV-NH2 [SEQ ID NO 330] |
| 1 µM | 82.6% | 0.0132 µM | 93.5% | DNPSLSIDLPLFLLRTLLELEKTQSQRERAEQNARIFARV-NH2 [SEQ ID NO 334] |
| 1 µM | 10.7% | 0.0231 µM | 96.5% | IVLSLDVPIGLLQKMIEIEKQEKEKQQATTNARILARV-NH2 [SEQ ID NO 322] |
| 0.1 µM | 5% | 0.0117 µM | 100% | IVLSLDVPIGLLQILLEQEKARAAREQATTNARILARV-NH2 [SEQ ID NO 325] |
| 1 µM | 78.7% | 0.00985 µM | 100% | PSLSIDLPLFLLRTLLELEKTQSQRERAEQNARIFARV-NH2 [SEQ ID NO 331] |
| 1 µM | 43.8% | 0.00985 µM | 96.9% | PSLSIDLPLLLLRTLLELEKTQSQRERAEQNARIFARV-NH2 [SEQ ID NO 333] |
| 1 µM | 61.3% | 0.00995 µM | 100% | PSLSIDLPLILLRTLLELEKTQSQRERAEQNARIFARV-NH2 [SEQ ID NO 332] |
| 1 µM | 36.9% | 0.0196 µM | 100% | DNPSLSIDLPLLLLRTLLELEKTQSQRERAEQNAEIFAEV-NH2 [SEQ ID NO 323] |
| 0.455 µM | 100% | 0.00935 µM | 81.7% | ZGPPISIDLPYHLLRKMIEIEKQEKEKQQAANNALLLAT (C-terminal amide) [SEQ ID NO 315] |
| 1 µM | 30.7% | 0.0117 µM | 95.7% | DNPSLSIDLPLLLLRTLLELEKTQSQRERAEQNAHIFAHV-NH2 [SEQ ID NO 328] |
| 1 µM | 98.4% | 0.00515 µM | 98.3% | DNPSLSIDLPLFLLRTLLELARTQSQRERAEQNARIFARV-NH2 [SEQ ID NO 329] |
| 0.0784 µM | 92.7% | 0.00582 µM | 96.5% | ZGPPISIDLPFALLRKMIEIEKQEKEKQQAANNRLLLDTI (not fully specified; C-terminal amide) [SEQ ID NO 307] |
| 0.106 µM | 88.3% | 0.0085 µM | 95% | ZGPPISIDLPFFLLRKMIEIEKQEKEKQQAANNALLLATI (C-terminal amide) [SEQ ID NO 319] |
| 0.979 µM | 82.4% | 0.0103 µM | 99.8% | ZGPPISIDLPYHLLRKMIEIEKQEKEKQQAANNALLLDTI (C-terminal amide) [SEQ ID NO 314] |
| 0.87 µM | 62% | 0.0141 µM | 95% | ZGPPISIDLPYHLLRKVIEIEKQEKEKQQAANNALLLDTI (C-terminal amide) [SEQ ID NO 312] |
| 0.188 µM | 100% | 0.0093 µM | 88.3% | ZGPPISIDLPFFLLRKVIEIEKQEKEKQQAANNALLLATI (C-terminal amide) [SEQ ID NO 317] |
| 0.107 µM | 96.3% | 0.00555 µM | 99.9% | ZGPPISIDLPYALLRKMIEIEKQEKEKQQAANNRLLLDTI (not fully specified; C-terminal amide) [SEQ ID NO 309] |
| 0.222 µM | 92.3% | 0.0102 µM | 94.5% | ZGPPISIDLPFFLLRKVIEIEKQEKEKQQAANNALLLDTI (C-terminal amide) [SEQ ID NO 316] |
| 0.135 µM | 92.8% | 0.00995 µM | 95.4% | ZGPPISIDLPFFLLRKMIEIEKQEKEKQQAANNALLLDTI (C-terminal amide) [SEQ ID NO 318] |
| 0.704 µM | 87.1% | 0.0111 µM | 95% | ZGPPISIDLPYHLLRKVIEIEKQEKEKQQAANNALLLATI (C-terminal amide) [SEQ ID NO 313] |
| 1 µM | 29.7% | 0.0117 µM | 100% | ZGPPISIDLPYWLLRKVIEIEKQEKEKQQAANNALLLDTI (C-terminal amide) [SEQ ID NO 311] |
| 0.0635 µM | 100% | 0.0033 µM | 72.8% | ZGPPISIDLPLALLRKMIEIEKQEKEKQQAANNRLLLDTI (not fully specified; C-terminal amide) [SEQ ID NO 308] |
| 1 µM | 45.3% | 0.0087 µM | 87.5% | ZGPPISIDLPYWLLRKMIEIEKQEKEKQQAANNALLLDTI (C-terminal amide) [SEQ ID NO 310] |
| 1 µM | 46.6% | 0.0172 µM | 100% | DNPSLSIDLPLLLLRTLLELEKTQSQRERAEQNAQIFAHV-NH2 [SEQ ID NO 324] |
| 1 µM | 30.1% | 0.0337 µM | 100% | DNPSLSIDLPLLLLRTLLELEKTQSQRERAEQNANIFANV-NH2 [SEQ ID NO 326] |
| 0.718 µM | 68.8% | 0.0191 µM | 100% | ZGPPISIDLPLQLLRKVIEIEKQEKEKQQATTNARILARV (C-terminal amide) [SEQ ID NO 320] |
| 1 µM | 33.8% | 0.0196 µM | 86.8% | ZGPPISIDLPFQLLRKTIEIEKQEKEKQQATTNARLLDRV (C-terminal amide) [SEQ ID NO 321] |
| 1 µM | 36.5% | 0.0284 µM | 100% | DNPSLSIDLPLLLLRTLLELEKTQSQRERAEQNAQIFAQV-NH2 [SEQ ID NO 327] |
